Data on 4 molecules can be found in patent publication EP4785962A1, “ANTIBODY-DRUG CONJUGATE TARGETING TROP2, AND PREPARATION METHOD AND USE THEREFOR” (priority 2023, dated 2025).

Where a chain is given by its changes, count along the chain named.

The subject of data set [1] is human hypopharyngeal carcinoma squamous cell line FaDu. Briefly: In vitro cytotoxicity test, FaDu cells, 6 days. The class given is cell-based. The conditions noted are these: 6 days of culture. On the procedure:
(§1) 10% FBS (SH30406.05, HYCLONE) was added to RPMI 1640 (22400-071, Gibco), and the mixture was mixed well to prepare a BxPC3 cell (ATCC) growth medium. BxPC3 or FaDu cells were adjusted to a concentration of 50000 cells/mL with a growth medium, seeded into a 96-well white-bottom plate (167008, NUNC) at 50 µL per well (2500 cells/well), and incubated overnight in an incubator at 37 °C. The antibody was diluted with growth medium and serially diluted 5-fold from 200 nM (2×) to obtain 9 gradients, with the final concentration being […]. The diluted antibody-drug conjugate or control was added at 50 µL/well, and the total volume was 100 µL. […] The cell pellet was fully lysed by shaking on a plate shaker for 5 min, and the luminescence signal was stabilized by standing at room temperature for 10 min. The culture plate was tested on a microplate reader (spectra MAX i3x, Molecular Divices), the […] were taken, and the cell viability was calculated. […]
(§2) The cell proliferation inhibition rate after 6 days of culture was calculated using the following formula.
(§3) Cell proliferation inhibition rate (%) = […], where a: the average value of experimental sample-added wells after 6 days of culture; b: the average value of control medium-added wells after 6 days of culture. The data were fitted by GraphPad Prism and the IC50 of the drug was calculated (Table 4).

The subject of data set [2] is human pancreatic cancer cell line BxPC-3. Briefly: In vitro cytotoxicity test, BxPC3 cells, 6 days. The conditions noted are these: BxPC3, 6 days of culture. It is filed as cell-based. On the procedure:
as §1, §2, §3

The conditions of data set [3]: Days 1 and 8/every 21 days for 4 cycles; EMEA/H/C/005182/0000; cited from earlier work.
The subject of data set [4] is drug-resistant triple-negative breast cancer (TNBC). The conditions noted are these: patients with drug-resistant triple-negative breast cancer (TNBC); cited from earlier work.
For data set [5] the following is noted: mouse, in vivo, 10 mg/kg; cited from earlier work.
For data set [6], the system named is Human gastric cancer cell line NCI-N87. Briefly: Mouse xenograft tumor model NCI-N87. The class given is in vivo, immunodeficient mice CB17-SCID. The conditions noted are these: intraperitoneal injection. On the procedure: • 1. Mice: immunodeficient mice CB17-SCID (Vital River) aged 6-8 weeks were placed in an SPF experimental environment for 3-5 days before the experiment to better adapt to the current living environment. In all experiments, the long and short diameters of the tumor were measured twice a week using a vernier caliper, and the tumor volume (mm^3) was calculated from the measured data. The calculation formula is as follows: Tumor volume(mm^3) = 0.5 × long diameter(mm) × short diameter(mm) × short diameter(mm) [formula] • 2. Human gastric cancer cell line NCI-N87 (ATCC) cells were resuspended in 1× PBS (Gibco, 10010049) at an appropriate concentration, and the tumor cells were implanted subcutaneously in the right abdomen of the mice at an inoculation amount of 2×10^6 /mouse. When the tumor volume reached 150-200 mm^3, the mice were divided into groups such that the average initial administration volume of each group was substantially the same. After grouping, different doses of antibody-drug conjugates hRs7-DXd, hRS7-MB3 and hTINA1-DXd, or control-drug conjugates IgG-MB3, IgG-DXd and IgG control were administered by intraperitoneal injection. […] Compared with hRS7-DXd, hRS7-MB3 has a stronger tumor inhibitory effect. […] Non-small cell lung cancer cell line HCC827 cells purchased from ATCC were inoculated subcutaneously into mice (2×10^6 /mouse), and when the tumor volume reached 120-150 mm^3, the mice were grouped and administered. Different doses of the antibody-drug conjugate and the control drug were intraperitoneally injected into the mice, and the administration was performed only once throughout the experiment. The growth status of the mice was observed, and the changes in tumor volume of the mice were measured. […] The lung squamous cell carcinoma cell line LK-2 (CBP60105) purchased from Nanjing Cobioer Biosciences was implanted subcutaneously in the right abdomen of the mice at an inoculation amount of 3 × 10 ^6 cells/mouse. When the tumor volume reached 150-200 mm^3, the mice were divided into groups such that the average initial administration volume of each group was substantially the same. The mice were administered only once throughout the experiment and injected intraperitoneally at a dose of 10 mg/kg. IgG-MB3 or IgG-DXd was used as a negative control. It was observed that two TROP2-targeted ADCs were also able to delay tumor growth in a tumor model with relatively low TROP2 expression (FIG. 7). […] The pancreatic cancer cell line BxPC3 cells purchased from ATCC were implanted subcutaneously in the right abdomen of the mice at an inoculation amount of 3 × 10 ^6 cells/mouse. […]

Data set [7] addresses human TROP2 protein on the surface of FaDu cells (human) (UniProt P09758). Briefly: flow cytometry on FaDu cells, fluorescent secondary antibody.
In data set [8] the target is Rhesus Monkey Trop2 protein (Sino Biological 90893-C08H) (rhesus monkey). Briefly: BLI (Octet Red96e), antibody on AHC sensor, antigen 100 nM. On the technique in general: Biolayer interferometry detects binding as a change in optical thickness at a sensor tip.
Data set [9] has as its target Recombinant human TROP2 protein (Sino Biological) (human) (UniProt P09758). The data set is described as above.
The target in data set [10] is T1, Rhesus Monkey Trop2 protein (Sino Biological 90893-C08H) (rhesus monkey, UniProt A0A5F8AGB8 27-274).
T1 construct: Bought recombinant protein
T1 sequence: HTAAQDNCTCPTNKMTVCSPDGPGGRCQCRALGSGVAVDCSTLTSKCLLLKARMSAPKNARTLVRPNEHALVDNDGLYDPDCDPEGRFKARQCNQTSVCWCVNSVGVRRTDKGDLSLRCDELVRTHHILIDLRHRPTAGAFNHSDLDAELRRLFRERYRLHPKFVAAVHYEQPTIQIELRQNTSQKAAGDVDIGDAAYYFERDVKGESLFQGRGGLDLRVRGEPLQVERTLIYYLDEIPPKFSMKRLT
The description is as above.

In data set [11] the target is T2, Recombinant human TROP2 protein (Sino Biological) (human, UniProt P09758 27-274).
T2 construct: Bought recombinant protein; The two paragraphs give different catalogue numbers; also called TACSTD2
T2 sequence (looked up): T1 sequence with V36M, N67S, V204I
The description is as above.

Data set [12] concerns the target T3, rat TROP2 (Sino Biological 86246-R08H) (rat, UniProt A0ABK0L8S5 21-268).
T3 construct: Bought recombinant protein
T3 sequence: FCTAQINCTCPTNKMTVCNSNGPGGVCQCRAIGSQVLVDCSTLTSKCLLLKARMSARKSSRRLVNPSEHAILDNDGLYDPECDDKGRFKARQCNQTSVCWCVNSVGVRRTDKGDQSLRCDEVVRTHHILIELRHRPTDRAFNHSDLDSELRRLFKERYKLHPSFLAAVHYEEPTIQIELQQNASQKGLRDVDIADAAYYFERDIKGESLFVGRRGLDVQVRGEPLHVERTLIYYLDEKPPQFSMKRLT
Briefly: BLI (Octet Red96e), antibody on AHC sensor, antigen in solution.

For data set [13], the target named is T4, mouse TROP2 (Sino Biological 50922-M08H) (mouse, UniProt Q8BGV3 25-270).
T4 construct: Bought recombinant protein
T4 sequence (looked up): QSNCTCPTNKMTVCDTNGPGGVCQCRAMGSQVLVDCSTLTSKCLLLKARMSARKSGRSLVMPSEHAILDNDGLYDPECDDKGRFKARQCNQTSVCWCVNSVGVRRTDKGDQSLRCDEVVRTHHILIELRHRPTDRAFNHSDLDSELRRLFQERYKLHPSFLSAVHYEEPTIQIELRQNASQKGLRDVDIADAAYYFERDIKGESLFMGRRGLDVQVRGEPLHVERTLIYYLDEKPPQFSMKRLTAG
Described as above.

Data set [14] addresses T5, human TROP2 protein on the surface of FaDu cells (human, UniProt P09758 27-323).
T5 construct: whole, on cells; also called TROP2 protein on cell surface; human TROP2 protein at the cellular level
T5 sequence (looked up): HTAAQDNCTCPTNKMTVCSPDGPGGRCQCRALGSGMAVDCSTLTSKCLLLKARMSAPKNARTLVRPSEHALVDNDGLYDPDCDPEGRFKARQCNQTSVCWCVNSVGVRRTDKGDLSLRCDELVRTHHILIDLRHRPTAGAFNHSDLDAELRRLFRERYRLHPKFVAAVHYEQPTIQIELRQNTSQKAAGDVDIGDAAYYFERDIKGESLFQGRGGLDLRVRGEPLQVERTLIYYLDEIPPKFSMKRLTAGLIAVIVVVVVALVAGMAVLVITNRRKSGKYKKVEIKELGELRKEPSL
Briefly: flow cytometry on FaDu cells, fluorescent secondary antibody. On the technique in general: Flow cytometry measures light scatter and fluorescence of single cells or particles in a stream.

A word on the IC50: it is the concentration needed to halve the response being measured. As for Trodelvy [reference compound], the IC50 came out at 0.53 nM in data set [1] and 0.42 nM in data set [2]. In addition, the HNSTD in [3] is listed as 50 mg/kg. The “objective response rate (ORR)” value in data set [4] is 33%. Also, the half-life in mice in data set [5] is on record as 11 h.

As for “hRS7-DXd: antibody hRS7 conjugated with Linker-DXd, average DAR 4.4 [reference compound]”, the tumor inhibitory effect entry in data set [6] (high-dose group (3 mg/kg)) is “comparable tumor inhibitory effects”; in [6] (low dose (1 mg/kg), compared with IgG-MB3 and IgG-DXd) it was “a certain degree of tumor inhibitory effect”.

By EC50 is commonly meant the concentration that produces a half-maximal response. The term Kd denotes the concentration at which binding is half-saturated. As usually defined, the koff is the rate constant with which the complex falls apart. One may read the kon as the rate constant with which the complex forms. Regarding “hTINA1 (the antibody used in Ds-1062), positive control antibody”, in [7], the EC50 was determined as 1.7 nM. In data set [8], this molecule gave a Kd of 32.5 nM, a Response of 0.21, a koff of 0.00356 s⁻¹ and a kon of 110000 M⁻¹ s⁻¹. In addition, in [9], the Kd stood at 22.8 nM, the Response turned out to be 0.284, the koff is 0.0035 s⁻¹ and the kon was determined as 154000 M⁻¹ s⁻¹.

B1: hRS7 antibody (hRS7-IgG1), humanized antibody targeting TROP2 in IgG1 form (antibody, V domains shown)
VH: QVQLQQSGSELKKPGASVKVSCKASGYTFTNYGMNWVKQAPGQGLKWMGWINTYTGEPTYTDDFKGRFAFSLDTSVSTAYLQISSLKADDTAVYFCARGGFGSSYWYFDVWGQGSLVTVSS
VL: DIQLTQSPSSLSASVGDRVSITCKASQDVSIAVAWYQQKPGKAPKLLIYSASYRYTGVPDRFSGSGSGTDFTLTISSLQPEDFAVYYCQQHYITPLTFGAGTKVEIKR
In [10], B1 returned a Kd of 7.75 nM, a koff of 0.000823 s⁻¹ and a kon of 106000 M⁻¹ s⁻¹. Further, in [11], the Kd came to 4.52 nM, the koff worked out at 0.00056 s⁻¹ and the kon was found to be 124000 M⁻¹ s⁻¹. The binding result in [12] was “no binding (tested: 100 nM)”. Further, in data set [13], the binding result is on record as “no binding (tested: 100 nM)”. Also, the EC50 in [14] turned out to be 1.58 nM.
